Laboratory results as given in the DeepSol protein solubility set.

Experiment: soluble on expression in E. coli; label from the status in PepcDB or PDB records

Sequence	soluble on expression in E. coli
NKSDMNHFMQVLRYLDPIHYLKATNDNGFPMSRMYSNQTVTIGGTITQPLPFKPDGENNVKLQRVVAKLDVNIVEGVENLQKIELCNANVHYRLVPNQSEPIQFYGPVELRRVGTTNQWLGYMPEAIVESTKWWGNTGNAENKPINFFRLTTRGGLVYDVPIITHEGAIPGGQYLPFAKGLLADKPSYTVYRNRHYIYRIKTLPDKIEVKYSICDWNIVTNDTYMGYGYNVGVDEQGNVTITNTMQNCDPHVVRLVAKNGAYFGSQPTDTSVEFAELANGASQTFKVNKDAVAVGSAYLEVYYNPDPNATGVVPDKVFIKK	not soluble
MQGKDNYQEQQEINSTDEEGMIFQLADTTIQACNAAAERIIGYKNEQILGKTPFKPPWQIVHEDGTIFTPETVPPIVALQTGKPCKNVVMGLYQPTGQLVWLLLNSQPLFQTNKSTPYAVVTTFTDFTKVKCRQSRSDACITNNKKLIVTWNQDQAVEISPNTDKQKLNQPVAEPISDDCTKAFLSMQNHILELIATGNSLSEILEKLAQSIEAQLAEVFCSIMLLNDTGTKLYPGVSSSLPEKYIQELKNGVPVGADVGSCGTSAYTKQTVIVSDIASDHKWVKYRDLTLTNNLKACWSTPILDSQGHVLGTFALYYPTVRIPQKSDLQLIERASHLAGVAIERQRWQLALQQSEYQLRLMTETIPQQVWTAQPNGLVDYYNQRWCDFTGKTQEQLKTESWEQIIHPEDLPKVEELWAKAVQTGSDYEVETRMLSGSGEYHWILGQARPLRNQQGQIVKWYGTNTDITDHIQAREALRESELNFRTLADTMPQMIWTAKGDGWLEYCNQRWLDYTGMTLEETQGWGWQPVLHPDDAQICIDIWSESVRTGQNYQIEYRLRRARDGQYRWHLGRAFPLRNQKGQIIKWFGSCTDIDDHKRSEEALRNALQEKQAAYEAAETANRVKDEFLAILSHELRTPLNPILGWSQLLKTGKLDKDKTDEALKSIERNAKLQVDLIDDLLDVSRILRGKLTLNVTTVNLADIISAALETMSLAASVKQIAVQTLIEPNIGKVRGDPARLQQIVWNLLSNAIKFTPQGGEVVVQLEQIGSMAHIIVSDQGKGINRKFLPHIFEHFRQEDGSTTRKFGGLGLGLAIVRHLVELHGGTVEADSPGEGQGTTLKVILPLISSLPVTVTNGQFEDVALSLKGIKILVVDDDVDSLAFVKVVLELYEATVTTAASAPEALQIGVQLKPDVLISDIGMPEMDGYELLRRMRALSSDLGGDIPAVSKAIPKAIALTAFAGELDEQQAMAAGFQIHIPKPVEPEALAAAVAQVLKINV	not soluble
MFSDTDISMMENALRLAALGRFSTSPNPRVGCVIAHGSQIVGQGFHVKAGEPHAEVHALRQAGEMAQGATAFVTLEPCSHYGRTPPCAEALVRAGVSRVVAAMRDPNPLVAGKGLALLEAAGIKTECGLLEHQARELNRGFLSRIERRRPFVRLKCAVSLDGKTALSDGSSFWITGEDARADVQVLRAESCAVLTGIGTVLADNPRLNVRAFPTLRQPARIVLDSRLRLPPNSHLVTDGQSPTYIATLERNEDRLHPYREHAHVRILMPSETADSKIDLHHLMRLLADEGFGEIMVEAGSELTSAFLAENLADEIVLYRSPKILGSGKDLFSLLENRAALSAPPLWTPVSSEILGHNIKTVFRKNGNAF	soluble
MASIKLKFRPSSVKGKKGVLSYQIIHYRLTRLIKTSYRIMPSEWDDSTGSLLISTQSECKARLLLIRDQTNWEMTRLQGIINDLERTGVEYTIDDIVASFRKIPSVESVFNFMQRCINKLERQKRGRTAEGYTSTMNSFIQFRKNEDLSFEAFDSELMEMYEAYLKEKGLVKNSTSYYMRIWRSVYNLAVEQGYTTDKKPFKHVYTGIDKTVKRAVPFKIIKMIKELDLSFEPQLELARDIFLFSFYTRGMSFIDMAHLKKSNLQNGILTYSRKKTGQRLTILWEELMQEIVDKYKDDTSEYLLPILRYCDINDRKQYKLRAKQIGRGLNKIGLRLELKAPLTFYVARHSWASIAQDRKVSTDIIREGLGHDNEKTTHIYLASISTSQIDRANQIILRGL	not soluble
GMHLKEKITTIIQGQRTGVLSTVRNDKPHSAFMMFFHEDFVLYVATDRQSKKITDIENNPNVHVLLGREGKKLDEDYIEVEGLASIEEDSTLKNKFWNNSLKRWLLRPEDPNYVLIKINPDTIYYIDGAGTTEPEFLRL	soluble
